The text below walks through data of publication PMC3421062.

pKd: −log10 of the molar value.

Assay [1] concerns the target N130-V5 recombinant protein (NAC1 BTB domain only) (UniProt Q96RE7). The experiment in a line: pull-down.
The target of assay [2] is NAC1-V5 recombinant protein (UniProt Q96RE7). Briefly: pull-down.

As for “purified recombinant actin (Cytoskeleton Inc.) (from UniProt P60709 1-375) (natural protein)”, the pKd (commonly the Kd on a negative log10 scale, so that one unit is a factor of ten) in assay [1] is 6.28; in assay [2] it was 6.11.
